What all share (details): protein: recombinant; tags: GST; label: fluorescein (RNA labelling mix)
In one data set the target is T1, SXS (GST-SXL Sciara) (Sciara ocellaris, UniProt Q86QM9 1-287).
T1 sequence: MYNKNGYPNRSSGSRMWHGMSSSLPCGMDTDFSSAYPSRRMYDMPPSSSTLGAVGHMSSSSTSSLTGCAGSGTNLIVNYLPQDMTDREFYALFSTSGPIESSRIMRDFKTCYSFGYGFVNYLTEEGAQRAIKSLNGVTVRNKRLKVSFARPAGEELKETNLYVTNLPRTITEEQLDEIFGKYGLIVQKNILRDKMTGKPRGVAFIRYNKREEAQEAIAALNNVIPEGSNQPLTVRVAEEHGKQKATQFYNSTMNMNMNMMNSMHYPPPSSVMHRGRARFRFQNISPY
Briefly: EMSA; Hill n=1; error 95% CI; 20 mM Hepes pH 8.0, 0.1 M KCl, 0.5 mM EDTA, 1 mM DTT, 0.05% NP40, 20% glycerol, 3 µg yeast tRNA; 5 min on ice, then 10 min at room temperature with RNA; 5% native PAGE, 0.25x TBE.

Data set [1] concerns the target T2, SXM (GST-SXL Drosophila) (Drosophila melanogaster, UniProt P19339 1-354).
T2 sequence: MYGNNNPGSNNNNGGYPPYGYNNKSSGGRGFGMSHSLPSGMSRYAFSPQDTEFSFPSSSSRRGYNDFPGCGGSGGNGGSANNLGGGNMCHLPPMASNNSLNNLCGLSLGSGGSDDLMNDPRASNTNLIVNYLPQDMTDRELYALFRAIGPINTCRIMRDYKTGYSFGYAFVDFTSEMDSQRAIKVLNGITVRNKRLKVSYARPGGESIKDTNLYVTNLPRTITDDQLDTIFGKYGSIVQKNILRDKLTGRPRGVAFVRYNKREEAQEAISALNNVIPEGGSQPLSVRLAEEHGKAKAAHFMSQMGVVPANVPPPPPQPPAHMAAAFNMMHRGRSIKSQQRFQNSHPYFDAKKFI
Briefly: EMSA; cooperative, Hill n>2; error 95% CI; 20 mM Hepes pH 8.0, 0.1 M KCl, 0.5 mM EDTA, 1 mM DTT, 0.05% NP40, 20% glycerol, 3 µg yeast tRNA; 5 min on ice, then 10 min at room temperature with RNA; 5% native PAGE, 0.25x TBE.

In data set [2] the target is T2, SXM (GST-SXL Drosophila). Briefly: EMSA; apparent Kd, Hill fit; error 95% CI; 20 mM Hepes pH 8.0, 0.1 M KCl, 0.5 mM EDTA, 1 mM DTT, 0.05% NP40, 20% glycerol, 3 µg yeast tRNA; 5 min on ice, then 10 min at room temperature with RNA; 5% native PAGE, 0.25x TBE.

Turning to CAUGAUUAUUUUUUUUUAUUUUUUUUCGGUGA (ssRNA) [double poly(U) SXL site], the values for the Kd with SXS (GST-SXL Sciara) and with SXM (GST-SXL Drosophila) [1] were 300 ± 200 nM and 500 ± 300 nM, respectively.
For ACAUAUUUUUUUUCACAGC (ssRNA) [single poly(U) SXL site], the Kd with SXM (GST-SXL Drosophila) [2] was 150000 ± 20000 nM.

The values are drawn from PMC3677924, “Biochemical and Functional Analysis of Drosophila-Sciara Chimeric Sex-Lethal Proteins”.
